For 35 molecules, Kd results are on record in article PMC10786891, “Massively parallel profiling of RNA-targeting CRISPR-Cas13d”.

Changes are numbered by the printed parent chain. In names and notes the source's numbering stands.

Sequences and labels used below:
T1: EsCas13d, nuclease-dead (Eubacterium siraeum, UniProt B0MS50, R295A;H300A;R849A;H854A)
T1 sequence: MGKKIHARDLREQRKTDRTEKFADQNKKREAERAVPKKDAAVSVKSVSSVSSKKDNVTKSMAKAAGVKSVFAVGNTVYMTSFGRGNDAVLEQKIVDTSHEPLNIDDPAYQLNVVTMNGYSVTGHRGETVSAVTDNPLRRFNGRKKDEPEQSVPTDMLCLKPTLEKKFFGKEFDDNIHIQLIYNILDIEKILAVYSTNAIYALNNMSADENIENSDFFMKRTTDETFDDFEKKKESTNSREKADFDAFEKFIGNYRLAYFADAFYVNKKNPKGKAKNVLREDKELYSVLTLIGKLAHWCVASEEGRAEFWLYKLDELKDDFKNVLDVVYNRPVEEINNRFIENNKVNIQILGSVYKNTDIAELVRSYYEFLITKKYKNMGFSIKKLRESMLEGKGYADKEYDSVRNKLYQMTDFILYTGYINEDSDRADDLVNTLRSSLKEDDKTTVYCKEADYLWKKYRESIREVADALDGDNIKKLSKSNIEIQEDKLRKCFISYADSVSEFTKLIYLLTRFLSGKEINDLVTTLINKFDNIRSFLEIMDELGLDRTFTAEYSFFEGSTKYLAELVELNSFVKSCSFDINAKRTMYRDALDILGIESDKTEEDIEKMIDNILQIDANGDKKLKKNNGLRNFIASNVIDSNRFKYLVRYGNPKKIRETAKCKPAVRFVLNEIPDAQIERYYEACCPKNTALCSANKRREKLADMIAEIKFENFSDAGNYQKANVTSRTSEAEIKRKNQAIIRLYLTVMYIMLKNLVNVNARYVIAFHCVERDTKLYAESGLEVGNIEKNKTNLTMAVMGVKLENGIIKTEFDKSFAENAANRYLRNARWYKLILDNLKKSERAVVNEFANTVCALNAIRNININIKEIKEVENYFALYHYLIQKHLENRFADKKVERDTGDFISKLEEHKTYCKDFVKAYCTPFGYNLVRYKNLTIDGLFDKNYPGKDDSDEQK

B1: target 1 insG 3' of 16,insU 3' of 13 (mixed)
RNA 1: CACCCGUGCAAAAAUGCAGGGGUCUAAAACUGAGCGGAUAACCUCUCUAUGG
RNA 2: GGGAAUGGAUCCACAUCUACGAAUUCGUACCAUAGAGGAGUGUUAUCCGCUCACCGAGAUCGGAAGAGCACACGU
B2: target 1 insC 3' of 13,insA 3' of 6 (mixed)
RNA 1: B1 RNA 1
RNA 2: B1 RNA 2 with G38A, A39G, G40C, U41G, G42U, U44A, A45U, U46C, C48A
B3: target 1 C4A,C21A (mixed)
RNA 1: B1 RNA 1
RNA 2: GGGAAUGGAUCCACAUCUACGAAUUCGUACAAUAGAGAGGUUAUCCGAUCACCGAGAUCGGAAGAGCACACGU
B4: target 1 U3G,A18C (mixed)
RNA 1: B1 RNA 1
RNA 2: B3 RNA 2 with A31C, A34C, A48C, U49G
B5: target 2 MT 5'PFS UGC 3'PFS UCG (mixed)
RNA 1: CACCCGUGCAAAAUUGCAGGGGUCUAAAACCUUCUCCAAAUUGUUUCAUCCU
RNA 2: GGGAAUGGAUCCACAUCUACGAAUUCUGCAGGAUGAAACAAUUUGGAGAAGUCGAGAUCGGAAGAGCACACGU
B6: target 2 MT 5'PFS UGC 3'PFS AAA (mixed)
RNA 1: B5 RNA 1
RNA 2: B5 RNA 2 with U52A, C53A, G54A
B7: target 2 MT 5'PFS ACA 3'PFS UCC (mixed)
RNA 1: B5 RNA 1
RNA 2: B5 RNA 2 with U27A, G28C, C29A, G54C
B8: target 2 MT 5'PFS UGC 3'PFS CCG (mixed)
RNA 1: B5 RNA 1
RNA 2: B5 RNA 2 with U52C
B9: target 2 MT 5'PFS ACC 3'PFS AUG (mixed)
RNA 1: B5 RNA 1
RNA 2: B5 RNA 2 with U27A, G28C, U52A, C53U
B10: target 2 MT 5'PFS UAC 3'PFS AGG (mixed)
RNA 1: B5 RNA 1
RNA 2: B5 RNA 2 with G28A, U52A, C53G
B11: target 2 MT 5'PFS CGC 3'PFS CCA (mixed)
RNA 1: B5 RNA 1
RNA 2: B5 RNA 2 with U27C, U52C, G54A
B12: target 2 MT 5'PFS UGA 3'PFS CUA (mixed)
RNA 1: B5 RNA 1
RNA 2: B5 RNA 2 with C29A, U52C, C53U, G54A
B13: target 2 MT 5'PFS ACC 3'PFS AUA (mixed)
RNA 1: B5 RNA 1
RNA 2: B5 RNA 2 with U27A, G28C, U52A, C53U, G54A
B14: target 2 MT 5'PFS ACC 3'PFS AUU (mixed)
RNA 1: B5 RNA 1
RNA 2: B5 RNA 2 with U27A, G28C, U52A, C53U, G54U
B15: target 2 MT 5'PFS GUG 3'PFS CCA (mixed)
RNA 1: B5 RNA 1
RNA 2: B5 RNA 2 with U27G, G28U, C29G, U52C, G54A
B16: target 2 MT 5'PFS UAC 3'PFS AGC (mixed)
RNA 1: B5 RNA 1
RNA 2: B5 RNA 2 with G28A, U52A, C53G, G54C
B17: target 2 MT 5'PFS UAC 3'PFS AGA (mixed)
RNA 1: B5 RNA 1
RNA 2: B5 RNA 2 with G28A, U52A, C53G, G54A
B18: target 2 MT 5'PFS CGG 3'PFS UGU (mixed)
RNA 1: B5 RNA 1
RNA 2: B5 RNA 2 with U27C, C29G, C53G, G54U
B19: target 2 MT 5'PFS GAC 3'PFS CGA (mixed)
RNA 1: B5 RNA 1
RNA 2: B5 RNA 2 with U27G, G28A, U52C, C53G, G54A
B20: target 2 MT 5'PFS AGU 3'PFS CCA (mixed)
RNA 1: B5 RNA 1
RNA 2: B5 RNA 2 with U27A, C29U, U52C, G54A
B21: target 2 MT 5'PFS UGC 3'PFS AAG (mixed)
RNA 1: B5 RNA 1
RNA 2: B5 RNA 2 with U52A, C53A
B22: target 2 MT 5'PFS UGC 3'PFS UCA (mixed)
RNA 1: B5 RNA 1
RNA 2: B5 RNA 2 with G54A
B23: target 2 MT 5'PFS UGC 3'PFS AAC (mixed)
RNA 1: B5 RNA 1
RNA 2: B5 RNA 2 with U52A, C53A, G54C
B24: target 2 MT 5'PFS CUA 3'PFS CAC (mixed)
RNA 1: B5 RNA 1
RNA 2: B5 RNA 2 with U27C, G28U, C29A, U52C, C53A, G54C
B25: target 2 MT 5'PFS UAA 3'PFS CGC (mixed)
RNA 1: B5 RNA 1
RNA 2: B5 RNA 2 with G28A, C29A, U52C, C53G, G54C
B26: target 2 MT 5'PFS ACC 3'PFS AUC (mixed)
RNA 1: B5 RNA 1
RNA 2: B5 RNA 2 with U27A, G28C, U52A, C53U, G54C
B27: target 2 MT 5'PFS ACA 3'PFS UCU (mixed)
RNA 1: B5 RNA 1
RNA 2: B5 RNA 2 with U27A, G28C, C29A, G54U
B28: target 2 MT 5'PFS CGC 3'PFS CCG (mixed)
RNA 1: B5 RNA 1
RNA 2: B5 RNA 2 with U27C, U52C
B29: target 2 MT 5'PFS UAC 3'PFS UAC (mixed)
RNA 1: B5 RNA 1
RNA 2: B5 RNA 2 with G28A, C53A, G54C
B30: target 2 MT 5'PFS UGC 3'PFS CCA (mixed)
RNA 1: B5 RNA 1
RNA 2: B5 RNA 2 with U52C, G54A
B31: target 2 MT 5'PFS CGG 3'PFS UGC (mixed)
RNA 1: B5 RNA 1
RNA 2: B5 RNA 2 with U27C, C29G, C53G, G54C
B32: target 2 MT 5'PFS AGU 3'PFS CCG (mixed)
RNA 1: B5 RNA 1
RNA 2: B5 RNA 2 with U27A, C29U, U52C
B33: target 2 MT 5'PFS UGA 3'PFS CUC (mixed)
RNA 1: B5 RNA 1
RNA 2: B5 RNA 2 with C29A, U52C, C53U, G54C
B34: target 2 MT 5'PFS CGG 3'PFS UGA (mixed)
RNA 1: B5 RNA 1
RNA 2: B5 RNA 2 with U27C, C29G, C53G, G54A
B35: target 2 MT 5'PFS UAC 3'PFS UAG (mixed)
RNA 1: B5 RNA 1
RNA 2: B5 RNA 2 with G28A, C53A

The target of the series is T1, EsCas13d, nuclease-dead. Kind of series: crRNA (strand 1, pre-loaded); Mg2+; 40 mM Tris-HCl pH 7.5, 150 mM NaCl, 6 mM MgCl2, 1 mM DTT, 0.1% Tween-20, 0.2 mg/ml BSA; 25 C; 10 min per concentration, then washed. The settings on record: tags: His6-TwinStrep-SUMO cleaved; N-terminal SNAP kept (SNAP-Surface 488); label: 3' end held by stalled T7 RNA polymerase.
What is called Kd is the concentration at which binding is half-saturated. Higher therefore signals lower affinity. In turn, B1 displayed a dissociation constant Kd of 23.2 ± 3.2 nM.

On to B2, for which the Kd was 11.7 ± 0.9 nM.

As for B3, binding was put at a Kd of 41 ± 9 nM.

B4: the Kd came to 52 ± 4 nM.

In turn, B5 had a Kd of 60 ± 24 nM.

In turn, B6 registered a Kd of 14 ± 5 nM.

Molecule B7 showed a Kd of 10 ± 2.5 nM.

B8: the Kd turned out to be 61 ± 15 nM.

Consider B9, for which the Kd amounted to 5.8 ± 1.5 nM.

For the molecule B10, the equilibrium dissociation constant (Kd) was determined as 4.7 ± 0.7 nM.

Consider B11, for which binding was put at a Kd of 22 ± 4 nM.

Molecule B12 displayed a Kd of 8.7 ± 1.1 nM.

Regarding B13, the affinity, expressed as Kd, was 6.7 ± 3.2 nM.

For the molecule B14, the Kd was approximately 12 nM.

B15 displayed a Kd of 21.2 ± 1.8 nM.

B16 returned a Kd of 4.2 ± 0.5 nM.

B17 returned a Kd of 6.7 ± 0.9 nM. Against the preceding molecule, the Kd is about 1.6-fold higher.

Turning to B18, the dissociation constant (Kd) worked out at 9.3 ± 1.6 nM.

Molecule B19 returned a Kd of 13.6 ± 1.5 nM.

Regarding B20, the equilibrium dissociation constant (Kd) was 36 ± 11 nM.

B21 registered a Kd of 15 ± 3.3 nM.

Consider B22, for which the Kd is 10.4 ± 1.8 nM.

Consider B23, for which the dissociation constant (Kd) turned out to be 13 ± 4 nM.

With B24, the Kd is 3.01 ± 0.32 nM.

The molecule B25 registered a Kd of 4.3 ± 0.5 nM.

Take B26: the Kd amounted to 5.5 ± 0.7 nM.

For the molecule B27, the dissociation constant Kd was determined as 8.6 ± 2.3 nM. Against the preceding molecule, the Kd is about 1.6-fold higher.

For B28, the Kd amounted to 8.1 ± 1.3 nM.

Molecule B29 showed a dissociation constant Kd of 6.2 ± 0.8 nM.

Take B30: the affinity, expressed as Kd, was 16 ± 5 nM.

The molecule B31 showed a Kd of 4.3 ± 0.5 nM.

Turning to B32, the dissociation constant (Kd) was 10.2 ± 0.9 nM.

For B33, the Kd amounted to 47 ± 20 nM.

Take B34: the Kd turned out to be 6.9 ± 1.3 nM.

In turn, B35 yielded a Kd of 6.7 ± 0.6 nM.
